Test results: US20230212319A1, “NOVEL ANTIGEN BINDING DOMAINS AND SYNTHETIC ANTIGEN RECEPTORS INCORPORATING THE SAME” (University of Southern California, priority 2020, published 2023)

Experiments:
Type in all cases: cell-based
RAJI cells = assay: JNG assay, co-culture with RAJI cells; conditions: for NFAT-GFP ASSAY: Raji: JNG cells expressing construct, co-culture with Raji
Method in brief: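 Read-out is NFAT-driven GFP measured by flow cytometry after ~4–18 h co-culture of SAR-expressing JNG cells with target cells (E:T about 1:2). SARs were introduced by lentiviral spinfection and selected with puromycin or blasticidin when possible; scores (+/- to 5+ ≈ 5–50% GFP+) are relative to parental JNG cells.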

SKOV-3 cells = assay: JNG assay, co-culture with SKOV-3 cells; conditions: for NFAT-GFP ASSAY: SKOV-3: co-culture with SKOV-3
Protocol: Cellular supernatant is collected and assayed for the induction of cytokines (e.g., IL2).
JNG (Jurkat cells expressing EGFP under an NFAT promoter) were infected with lentiviral vectors encoding different single chain and multi-chain SARs by spinfection in the presence of 8 µg/ml of Polybrene® (Sigma, Catalog no. H9268). The Jurkat-NFAT-GFP cells are engineered in such a way that the IL-2 promoter, which carries NFAT binding sites, is cloned upstream of the GFP gene. These cells have been used to study signaling via TCR and CAR. The different SARs were stably expressed in Jurkat NFAT-GFP cells by lentiviral mediated gene transfer, followed by selection with puromycin or blasticidin. No drug selection was used in case the construct lacked an antibiotic resistance gene. The SAR-expressing Jurkat-NFAT-GFP cells were cocultured with the target cells at E:T ratio of approximately 1:2 for approximately 4 hours to 18 hours. When the interaction between SIRs and their target antigen results in activation of the NFAT pathway, GFP expression is induced. […] GFP expression was monitored by FACS analysis. The Jurkat-NFAT-GFP (parental) cells were used as control. The structure of different constructs can be determined based on their names. […] The sequence of the other constructs in the table can be similarly determined from their names and by referring to the different Tables of this disclosure that provide the names and SEQ ID NO of the different modules. Alternatively, the composition and modular architecture of the different SAR constructs can be determined from their sequences by bioinformatics tools, including using nucleic acid and amino acids homology searches. A SAR is considered positive in the assay in case the SAR expressing Jurkat-NFAT-GFP cells show greater % GFP positive cells when cultured with the target cell line as compared to parental Jurkat-NFAT-GFP cells. […] In general, the number +/-, +, 2+, 3+, 4+, 5+ refer to approximately 5%, 10%, 20%, 30%, 40% and 50% GFP positive cells. The % of GFP induction in the above assay is dependent not only the relative strength of the SAR but also, among other factors, on the relative level of expression of the SAR in the JNG cells and the relative level of expression of the target antigen in the target cell line. To control for the difference in gene transduction efficiency of the different SAR constructs, the experiment was conducted with JNG cells transduced with SAR constructs co-expressing a drug resistance gene (e.g., puromycin or PAC) followed by drug selection to generate a stable population of SAR-expressing cells. It is to be noted that the drug resistance gene (e.g., PAC) in the SAR constructs is optional and in vivo studies were conducted with SAR constructs lacking the PAC gene.

Nalm6 cells = assay: JNG assay, co-culture with Nalm6 cells; conditions: co-culture with Nalm6 cells
Method in brief: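 SAR-JNG (lentiviral spinfection, drug-selected) + target cells, E:T ≈1:2, ≈4–18 h; FACS for GFP; positivity = %GFP+ over parental JNG; grades +/- to 5+ ≈ 5–50% GFP+.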

| Molecule | GFP induction / activity (RAJI cells; co-culture with RAJI cells) | GFP induction / activity (SKOV-3 cells; co-culture with SKOV-3 cells) | GFP induction / activity (Nalm6 cells) | NFAT-GFP ASSAY: Raji (RAJI cells) | NFAT-GFP ASSAY: SKOV-3 (SKOV-3 cells) |
| --- | --- | --- | --- | --- | --- |
| SEQ ID NO: 22177: trispecific SAR construct targeting CD19 and CD20 and coexpressing the ligand binding domain of NKG2D (protein) MALPVTALLLPLALLLHAARPLFNQEVQIPLTESYCGPCPKNWICYKNNCYQFFDESKNWYESQASCMSQNASLLKVYSKEDQDLLKLVKSYHWMGLVHIPTNGSWQWEDGSILSPNLLTIIEMQKGDCALYASSFKGYIENCSTPNTYICMQRTVGGGGSGGGGSGGGGSDLFNQEVQIPLTESYCGPCPKNWICYKNNCYQFFDESKNWYESQASCMSQNASLLKVYSKEDQDLLKLVKSYHWMGLVHIPTNGSWQWEDGSILSPNLLTIIEMQKGDCALYASSFKGYIENCSTPNTYICMQRTVGTGGGGSGGGGSGGGGSEFDIQMTQSPSSLSASVGDRVTITCKASDHINNWLAWYQQKPGQAPKLLIYGATTLETGVPSRFSGSGSGTDYTLTISSLQPEDFATYYCQQSWNTPWTFGQGTKLEIKRLEDLKNVFPPEVAVFEPSKAEIAHTQKATLVCLATGFYPDHVELSWWVNGKEVHSGVCTDPQPLKEQPALNDSRYCLSSRLRVSATFWQNPRNHFRCQVQFYGLSENDEWTQDRAKPVTQIVSAEAWGRADCGITSASYHQGVLSATILYEILLGKATLYAVLVSALVLMAMVKRKDSRGRAKRSGSGATNFSLLKQAGDVEENPGPTSATMDWIWRILFLVGAATGAHSGPQVQLQESGGGLAQAGGSLRLSCAASGRTFSMGWFRQAPGKEREFVAAITYSGGSPYYASSVRGRFTISRDNAKNTVYLQMNSLKPEDTAVYYCAANPTYGSDWNAENWGQGTQVTVSSGSGGGGSGGGGSGGGGSFEQVQLQQPGAELVKPGASVKMSCKASGYAFSSYWINWMKQKPGQGLEWIGQIYPGDGDTNYNGKFKGRATLTADTSSSTAYMQLSSLTSEDSAVYFCARSITTVVGCAMDYWGQGTSVTVSSTRIQNPDPAVYQLRDSKSSDKSVCLFTDFDSQTNVSQSKDSDVYITDKCVLDMRSMDFKSNSAVAWSNKSDFACANAFNNSIIPEDTFFPSSDVPCDVKLVEKSFETDTNLNFQNLSVIGFRILLLKVAGFNLLMTLRLWSSRAKRSGSGVKQTLNFDLLKLAGDVESNPGPSRGHMTEYKPTVRLATRDDVPRAVRTLAAAFADYPATRHTVDPDRHIERVTELQELFLTRVGLDIGKVWVADDGAAVAVWTTPESVEAGAVFAEIGPRMAELSGSRLAAQQQMEGLLAPHRPKEPAWFLATVGVSPDHQGKGLGSAVVLPGVEAAERAGVPAFLETSAPRNLPFYERLGFTVTADVEVPEGPRTWCMTRKPGA | robust activity | robust activity | robust activity | – | – |
| 22195 (protein) MALPVTALLLPLALLLHAARPDIQMTQSPSSLSASVGDRVTITCKASDHINNWLAWYQQKPGQAPKLLIYGATTLETGVPSRFSGSGSGTDYTLTISSLQPEDFATYYCQQSWNTPWTFGQGTKLEIKRLEDLKNVFPPEVAVFEPSEAEISHTQKATLVCLATGFYPDHVELSWWVNGKEVHSGVCTDPQPLKEQPALNDSRYCLSSRLRVSATFWQNPRNHFRCQVQFYGLSENDEWTQDRAKPVTQIVSAEAWGRADCGFTSESYQQGVLSATILYEILLGKATLYAVLVSALVLMAMVKRKDSRGRAKRSGSGATNFSLLKQAGDVEENPGPTSATMDWIWRILFLVGAATGAHSGPGSDLGIKLLFAAAKGQDDEVRILLAAGADVNAKDFEGYTPLHVAAYDGHLEIVEVLLKAGADVNAKDSQGRTPLHEAAYSGHLEIVEVLLKAGADVNAQDDAGETPADLAAAWGHEDIAEVLQKGSGGGGSGGGGSGGGGSFEQVQLQQPGAELVKPGASVKMSCKASGYAFSSYWINWMKQKPGQGLEWIGQIYPGDGDTNYNGKFKGRATLTADTSSSTAYMQLSSLTSEDSAVYFCARSITTVVGCAMDYWGQGTSVTVSSTRIQNPDPAVYQLRDSKSSDKSVCLFTDFDSQTNVSQSKDSDVYITDKCVLDMRSMDFKSNSAVAWSNKSDFACANAFNNSIIPEDTFFPSPESSCDVKLVEKSFETDTNLNFQNLSVIGFRILLLKVAGFNLLMTLRLWSSRAKRSGSGVKQTLNFDLLKLAGDVESNPGPSRGHMTEYKPTVRLATRDDVPRAVRTLAAAFADYPATRHTVDPDRHIERVTELQELFLTRVGLDIGKVWVADDGAAVAVWTTPESVEAGAVFAEIGPRMAELSGSRLAAQQQMEGLLAPHRPKEPAWFLATVGVSPDHQGKGLGSAVVLPGVEAAERAGVPAFLETSAPRNLPFYERLGFTVTADVEVPEGPRTWCMTRKPGA | – | – | – | 4+ (refer to approximately 5%, 10%, 20%, 30%, 40% and 50% GFP positive cells) | 4+ (refer to approximately 5%, 10%, 20%, 30%, 40% and 50% GFP positive cells) |
| 22197 (protein) MALPVTALLLPLALLLHAARPDIQMTQSPSSLSASVGDRVTITCKASDHINNWLAWYQQKPGQAPKLLIYGATTLETGVPSRFSGSGSGTDYTLTISSLQPEDFATYYCQQSWNTPWTFGQGTKLEIKRLEDLKNVFPPEVAVFEPSEAEISHTQKATLVCLATGFYPDHVELSWWVNGKEVHSGVCTDPQPLKEQPALNDSRYCLSSRLRVSATFWQNPRNHFRCQVQFYGLSENDEWTQDRAKPVTQIVSAEAWGRADCGFTSESYQQGVLSATILYEILLGKATLYAVLVSALVLMAMVKRKDSRGRAKRSGSGATNFSLLKQAGDVEENPGPTSATMDWIWRILFLVGAATGAHSGPGSDLGIKLLFAAAKGQDDEVRILLAAGADVNAKDFEGYTPLHVAAYDGHLEIVEVLLKAGADVNAKDSQGRTPLHEAAYSGHLEIVEVLLKAGADVNAQDDAGETPADLAAAWGHEDIAEVLQKGSGGGGSGGGGSGGGGSFEQVQLQQPGAELVKPGASVKMSCKASGYAFSSYWINWMKQKPGQGLEWIGQIYPGDGDTNYNGKFKGRATLTADTSSSTAYMQLSSLTSEDSAVYFCARSITTVVGCAMDYWGQGTSVTVSSTRIQNPDPAVYQLRDSKSSDKSVCLFTDFDSQTNVSQSKDSDVYITDKCVLDMRSMDFKSNSAVAWSNKSDFACANAFNNSIIPEDTFFPSPESSCDVKLVEKSFETDTNLNFQNLSVIGFRILLLKVAGFNLLMTLRLWSSRAKRSGSGVKQTLNFDLLKLAGDVESNPGPSRGHMTEYKPTVRLATRDDVPRAVRTLAAAFADYPATRHTVDPDRHIERVTELQELFLTRVGLDIGKVWVADDGAAVAVWTTPESVEAGAVFAEIGPRMAELSGSRLAAQQQMEGLLAPHRPKEPAWFLATVGVSPDHQGKGLGSAVVLPGVEAAERAGVPAFLETSAPRNLPFYERLGFTVTADVEVPEGPRTWCMTRKPGA | – | – | – | 2+ (refer to approximately 5%, 10%, 20%, 30%, 40% and 50% GFP positive cells) | 5+ (refer to approximately 5%, 10%, 20%, 30%, 40% and 50% GFP positive cells) |
